From publication PMC6635489

B1: GluK3: T397A (protein)
parent chain: MTAPWRRLRSLVWEYWAGFLVCAFWIPDSRGMPHVIRIGGIFEYADGPNAQVMNAEEHAFRFSANIINRNRTLLPNTTLTYDIQRIHFHDSFEATKKACDQLALGVVAIFGPSQGSCTNAVQSICNALEVPHIQLRWKHHPLDNKDTFYVNLYPDYASLSHAILDLVQSLKWRSATVVYDDSTGLIRLQELIMAPSRYNIRLKIRQLPIDSDDSRPLLKEMKRGREFRIIFDCSHTMAAQILKQAMAMGMMTEYYHFIFTTLDLYALDLEPYRYSGVNLTGFRILNVDNAHVSAIVEKWSMERLQAAPRAESGLLDGVMMTDAALLYDAVHIVSVCYQRASQMTVNSLQCHRHKPWRFGGRFMNFIKEAQWEGLTGRIVFNKTSGLRTDFDLDIISLKEDGLEKVGVWSPADGLNITEVAKGRGPNVTDSLTNRSLIVTTLLEEPFVMFRKSDRTLYGNDRFEGYCIDLLKELAHILGFSYEIRLVEDGKYGAQDDKGQWNGMVKELIDHKADLAVAPLTITHVREKAIDFSKPFMTLGVSILYRKPNGTNPSVFSFLNPLSPDIWMYVLLAYLGVSCVLFVIARFSPYEWYDAHPCNPGSEVVENNFTLLNSFWFGMGSLMQQGSELMPKALSTRIIGGIWWFFTLIIISSYTANLAAFLTVERMESPIDSADDLAKQTKIEYGAVKDGATMTFFKKSKISTFEKMWAFMSSKPSALVKNNEEGIQRTLTADYALLMESTTIEYITQRNCNLTQIGGLIDSKGYGIGTPMGSPYRDKITIAILQLQEEDKLHIMKEKWWRGSGCPEEENKEASALGIQKIGGIFIVLAAGLVLSVLVAVGEFIYKLRKTAEREQRSFCSTVADEIRFSLTCQRRLKHKPQPPMMVKTDAVINMHTFNDRRLPGKDSMSCSTSLAPVFP
B2: GluK3: S404A (protein)
parent chain: B1 parent chain

What was measured:
Details in all cases: glycan lost; control: wild type GluK3
[1] = whole-cell dose-response, 30 µM-30 mM glutamate
[2] = whole-cell patch clamp, 30 mM glutamate, HEK293
[3] = surface biotinylation, anti-GluR6/7 blot, HEK293
[4] = two-pulse 30 mM glutamate protocol, whole-cell patch clamp

Row | Protein | other: glutamate EC50 of channel current, EC50 [1] | other: desensitization time constant, other: mean weighted tau_des [2] | localisation_or_trafficking [3] | other: time constant of recovery from desensitization, other: tau_rec [4]
1 | B1 | decreases, 3.7 vs 9.5 | no change, 3.2 ± 0.2 vs 3.8 ± 0.5 | no change | no change, 0.8 vs 0.9
2 | B2 | no change, 10.3 vs 9.5 | no change, 4.5 ± 0.3 vs 3.8 ± 0.5 | no change | decreases, 0.5 vs 0.9
